These results are taken from the RNAGym collection of RNA variant scans (doi:10.1093/nar/gkz1192).

The chains are these.
B1: CPEB3 Ribozyme (parent)
chain: UAACAGGGGGCCACAGCAGAAGCGUUCACGUCGCAGCCCCUGUCAGAUUCUGGUGAAUCUGCGAAUUCUGCUGUAUAUCUC

The variants in the series derive from B1. Briefly: self-cleavage, relative activity (ratio to wild type); higher = more cleavage; in vitro, sequencing. The procedure, abridged:
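For each CPEB3 ribozyme variant, relative activity is its cleaved/total read fraction divided by the unmutated ribozyme's. Barcoded error-prone PCR libraries were transcribed by T7 RNA polymerase (5 hours, 37°C) and held in DNase I for 15 min before an EDTA stop, with cleavage occurring throughout. Template-switching reverse transcription and Illumina sequencing were used to read the RNAs. A 5-read minimum applied, and results are the mean of three batches.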
On to UAACAGGGGGCCACAGCAGAAGCGCUCACGUCGCAGCCCCUGUCAGAUUCUGGUGAGUCUGCGAAUUCUGCUGUAUAUCUC [U25C A57G], for which the self-cleavage was found to be 0.28.

Turning to UAACAGGGGGCCACAGCAGAAGCGCUCACGUCGCAGCCCCUGUCAGAUUCUGGUGAUUCUGCGAAUUCUGCUGUAUAUCUC [U25C A57U], the self-cleavage amounted to 0.31.

On to UAACAGGGGGCCACAGCAGAAGCGCUUACGUCGCAGCCCCUGUCAGAUUCUGGUGAAUCUGCGAAUUCUGCUGUAUAUCUC [U25C C27U], for which the self-cleavage came to 0.36.

Turning to UAACAGGGGGCCACAGCAGAAGCGCUAACGUCGCAGCCCCUGUCAGAUUCUGGUGAAUCUGCGAAUUCUGCUGUAUAUCUC [U25C C27A], the self-cleavage was 0.41.

For UAACAGGGGGCCACAGCAGAAGCGAUCACGUCGCAGCCCCUGUCAGAUUCUGGUGAAUCUGCGAAUUCUGCUGUAUAUCAC [U25A U80A], the self-cleavage is 0.45.

For the variant UAACAGGGGGCCACAGCAGAAGCGAUCACGUCGCAGCCCCUGUCAGAUUCUGGUGAAUCUGCGAAUUCUGCUGUAUAUCCC [U25A U80C], the self-cleavage came out at 0.33.

Consider UAACAGGGGGCCACAGCAGAAGCGAUCACGUCGCAGCCCCUGUCAGAUUCUGGUGAAUCUGCGAAUUCUGCUGUAUAUCGC [U25A U80G], for which the self-cleavage worked out at 0.22.

As for UAACAGGGGGCCACAGCAGAAGCGCUCACGUCGCAGCCCCUGUCCGAUUCUGGUGAAUCUGCGAAUUCUGCUGUAUAUCUC [U25C A45C], the self-cleavage amounted to 0.18.

UAACAGGGGGCCACAGCAGAAGCGCUCACGUCGCAGCCCCUGUCUGAUUCUGGUGAAUCUGCGAAUUCUGCUGUAUAUCUC [U25C A45U]: the self-cleavage turned out to be 0.28.

Consider UAACAGGGGGCCACAGCAGAAGCGCUCACGUCGCAGCCCCUGUCGGAUUCUGGUGAAUCUGCGAAUUCUGCUGUAUAUCUC [U25C A45G], for which the self-cleavage turned out to be 0.26.

Turning to UAACAGGGGGCCACAGCAGAAGCGCUCAGGUCGCAGCCCCUGUCAGAUUCUGGUGAAUCUGCGAAUUCUGCUGUAUAUCUC [U25C C29G], the self-cleavage was found to be 0.24.

As to UAACAGGGGGCCACAGCAGAAGCGCUCAUGUCGCAGCCCCUGUCAGAUUCUGGUGAAUCUGCGAAUUCUGCUGUAUAUCUC [U25C C29U], the self-cleavage stood at 0.47.

With UAACAGGGGGCCACAGCAGAAGCGCUCAAGUCGCAGCCCCUGUCAGAUUCUGGUGAAUCUGCGAAUUCUGCUGUAUAUCUC [U25C C29A], the self-cleavage was found to be 0.3.

With UAACAGGGGGCCACAGCAGAAGCGCUCACGUCGCAGCCCCUGUCAGAUUCUGGUGAAUCUGCGAGUUCUGCUGUAUAUCUC [U25C A65G], the self-cleavage worked out at 0.3.

As to UAACAGGGGGCCACAGCAGAAGCGCUCACGUCGCAGCCCCUGUCAGAUUCUGGUGAAUCUGCGACUUCUGCUGUAUAUCUC [U25C A65C], the self-cleavage is 0.45.

For the variant UAACAGGGGGCCACAGCAGAAGCGCUCACGUCGCAGCCCCUGUCAGAUUCUGGUGAAUCUGCGAUUUCUGCUGUAUAUCUC [U25C A65U], the self-cleavage worked out at 0.28.

As to UAACAGGGGGCCACAGCAGAAGCGCUCACGUCGGAGCCCCUGUCAGAUUCUGGUGAAUCUGCGAAUUCUGCUGUAUAUCUC [U25C C34G], the self-cleavage was determined as 0.27.

Turning to UAACAGGGGGCCACAGCAGAAGCGCUCACGUCGUAGCCCCUGUCAGAUUCUGGUGAAUCUGCGAAUUCUGCUGUAUAUCUC [U25C C34U], the self-cleavage turned out to be 0.25.

As for UAACAGGGGGCCACAGCAGAAGCGAUCACGUCGCAGCCCCUGUCAGAUUCUGGUGAAUCUGCGAAAUCUGCUGUAUAUCUC [U25A U66A], the self-cleavage came to 0.31.

Regarding UAACAGGGGGCCACAGCAGAAGCGAUCACGUCGCAGCCCCUGUCAGAUUCUGGUGAAUCUGCGAACUCUGCUGUAUAUCUC [U25A U66C], the self-cleavage is 0.23.

As for UAACAGGGGGCCACAGCAGAAGCGCUCACGUCGCAGCCCCUGUCAGAUUCUGGUGAAUCUGCGGAUUCUGCUGUAUAUCUC [U25C A64G], the self-cleavage came to 0.3.

In the case of UAACAGGGGGCCACAGCAGAAGCGCUCACGUCGCAGCCCCUGUCAGAUUCUGGUGAAUCUGCGCAUUCUGCUGUAUAUCUC [U25C A64C], the self-cleavage is 0.45.

On to UAACAGGGGGCCACAGCAGAAGCGCUCACGUCGCAGCCCCUGUCAGAUUCUGGUGAAUCUGCGUAUUCUGCUGUAUAUCUC [U25C A64U], for which the self-cleavage is 0.26.

In the case of UAACAGGGGGCCACAGCAGAAGCGCUCACGUCGCAGCCCCUGUCAGAUUCUGGUGCAUCUGCGAAUUCUGCUGUAUAUCUC [U25C A56C], the self-cleavage is 0.25.

For UAACAGGGGGCCACAGCAGAAGCGCUCACGUCGCAGCCCCUGUCAGAUUCUGGUGGAUCUGCGAAUUCUGCUGUAUAUCUC [U25C A56G], the self-cleavage amounted to 0.25.

For the variant UAACAGGGGGCCACAGCAGAAGCGCUCACGUCGCAGCCCCUGUCAGAUUCUGGUGUAUCUGCGAAUUCUGCUGUAUAUCUC [U25C A56U], the self-cleavage is 0.24.

With UAACAGGGGGCCACAGCAGAAGCGCUCACGUCGCAGUCCCUGUCAGAUUCUGGUGAAUCUGCGAAUUCUGCUGUAUAUCUC [U25C C37U], the self-cleavage was 0.19.

For UAACAGGGGGCCACAGCAGAAGCGCUCACGUCGCAGACCCUGUCAGAUUCUGGUGAAUCUGCGAAUUCUGCUGUAUAUCUC [U25C C37A], the self-cleavage worked out at 0.46.

Consider UAACAGGGGGCCACAGCAGAAGCGCUCACGUCGCGGCCCCUGUCAGAUUCUGGUGAAUCUGCGAAUUCUGCUGUAUAUCUC [U25C A35G], for which the self-cleavage was found to be 0.31.

On to UAACAGGGGGCCACAGCAGAAGCGCUCACGUCGCUGCCCCUGUCAGAUUCUGGUGAAUCUGCGAAUUCUGCUGUAUAUCUC [U25C A35U], for which the self-cleavage was determined as 0.24.

UAACAGGGGGCCACAGCAGAAGCGCUCCCGUCGCAGCCCCUGUCAGAUUCUGGUGAAUCUGCGAAUUCUGCUGUAUAUCUC [U25C A28C]: the self-cleavage was 0.15.

On to UAACAGGGGGCCACAGCAGAAGCGCUCUCGUCGCAGCCCCUGUCAGAUUCUGGUGAAUCUGCGAAUUCUGCUGUAUAUCUC [U25C A28U], for which the self-cleavage came to 0.25.

As to UAACAGGGGGCCACAGCAGAAGCGCUCGCGUCGCAGCCCCUGUCAGAUUCUGGUGAAUCUGCGAAUUCUGCUGUAUAUCUC [U25C A28G], the self-cleavage was 0.28.

On to UAACAGGGGGCCACAGCAGAAGCGCUCACGUCGCAGCCCCUGUCAGAUUCUGGUGAAUCUGCGAAUUCUGCUGUAUAUCUC [U25C], for which the self-cleavage was 0.29.
